This note sets out measurements from publication PMC11582362.

B1: full length ADAR1 p110, wild type (FLAG-tagged and HA-tagged copies) [human] / full length ADAR1 p110, wild type (FLAG-tagged and HA-tagged copies) [human] (parent)
chain 1: MAEIKEKICDYLFNVSDSSALNLAKNIGLTKARDINAVLIDMERQGDVYRQGTTPPIWHLTDKKRERMQIKRNTNSVPETAPAAIPETKRNAEFLTCNIPTSNASNNMVTTEKVENGQEPVIKLENRQEARPEPARLKPPVHYNGPSKAGYVDFENGQWATDDIPDDLNSIRAAPGEFRAIMEMPSFYSHGLPRCSPYKKLTECQLKNPISGLLEYAQFASQTCEFNMIEQSGPPHEPRFKFQVVINGREFPPAEAGSKKVAKQDAAMKAMTILLEEAKAKDSGKSEESSHYSTEKESEKTAESQTPTPSATSFFSGKSPVTTLLECMHKLGNSCEFRLLSKEGPAHEPKFQYCVAVGAQTFPSVSAPSKKVAKQMAAEEAMKALHGEATNSMASDNQPEGMISESLDNLESMMPNKVRKIGELVRYLNTNPVGGLLEYARSHGFAAEFKLVDQSGPPHEPKFVYQAKVGGRWFPAVCAHSKKQGKQEAADAALRVLIGENEKAERMGFTEVTPVTGASLRRTMLLLSRSPEAQPKTLPLTGSTFHDQIAMLSHRCFNTLTNSFQPSLLGRKILAAIIMKKDSEDMGVVVSLGTGNRCVKGDSLSLKGETVNDCHAEIISRRGFIRFLYSELMKYNSQTAKDSIFEPAKGGEKLQIKKTVSFHLYISTAPCGDGALFDKSCSDRAMESTESRHYPVFENPKQGKLRTKVENGEGTIPVESSDIVPTWDGIRLGERLRTMSCSDKILRWNVLGLQGALLTHFLQPIYLKSVTLGYLFSQGHLTRAICCRVTRDGSAFEDGLRHPFIVNHPKVGRVSIYDSKRQSGKTKETSVNWCLADGYDLEILDGTRGTVDGPRNELSRVSKKNIFLLFKKLCSFRYRRDLLRLSYGEAKKAARDYETAKNYFKKGLKDMGYGNWISKPQEEKNFYLCPV
chain 2: B1 chain 1

Variants of B1 are the subject of the experiment. Description: co-immunoprecipitation (anti-FLAG IP, anti-HA western blot, bands quantified with ImageJ). The settings on record: HEK293T cells, in the presence of RNases, n = 3, parent: 70, read off a plot. (In general: Immunoblotting shows a protein as a band on a membrane.)
Take chain 1 V452A D453Q W473V C478S: the response worked out at 11%.
